# Patent publication US7666582B2, “IdeS, an IgG-degrading enzyme of Streptococcus pyogenes” (Hansa Medical Research AB, priority 2001, dated 2010)
# T1: H-kininogen (Homo sapiens, UniProt P01042)
# T1 sequence (P01042 19-644): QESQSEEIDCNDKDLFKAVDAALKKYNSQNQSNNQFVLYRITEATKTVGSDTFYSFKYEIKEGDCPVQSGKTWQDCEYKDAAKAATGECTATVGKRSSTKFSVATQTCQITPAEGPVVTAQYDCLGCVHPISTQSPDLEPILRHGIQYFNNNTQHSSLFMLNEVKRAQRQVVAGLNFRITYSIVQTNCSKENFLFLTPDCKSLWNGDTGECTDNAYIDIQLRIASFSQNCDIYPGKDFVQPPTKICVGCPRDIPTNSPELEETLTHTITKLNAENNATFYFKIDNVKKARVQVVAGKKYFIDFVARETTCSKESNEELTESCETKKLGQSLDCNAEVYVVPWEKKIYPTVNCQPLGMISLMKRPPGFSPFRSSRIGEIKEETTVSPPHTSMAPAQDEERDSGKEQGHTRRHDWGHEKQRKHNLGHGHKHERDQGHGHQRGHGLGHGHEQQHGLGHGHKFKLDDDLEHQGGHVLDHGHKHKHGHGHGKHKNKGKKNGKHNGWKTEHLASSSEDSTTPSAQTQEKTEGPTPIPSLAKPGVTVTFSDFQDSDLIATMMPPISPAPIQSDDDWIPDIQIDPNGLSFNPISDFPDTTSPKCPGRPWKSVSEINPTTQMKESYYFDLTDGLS
# B1: IdeS: new extracellular cysteine protease produced by S. pyogenes, highly specific for IgG; SEQ ID NO: 1 (protein)
# chain: DSFSANQEIRYSEVTPYHVTSVWTKGVTPPANFTQGEDVFHAPYVANQGWYDITKTFNGKDDLLCGAATAGNMLHWWFDQNKDQIKRYLEEHPEKQKINFNGEQMFDVKEAIDTKNHQLDSKLFEYFKEKAFPYLSTKHLGVFPDHVIDMFINGYRLSLTNHGPTPVKEGSKDPRGGIFDAVFTRGDQSKLLTSRHDFKEKNLKEISDLIKKELTEGKALGLSHTYANVRINHVINLWGADFDSNGNLKAIYVTDSDSNASIGMKKYFVGVNSAGKVAISAKEIKEDNIGAQVLGLFTLSTGQDSWNQTN
# modifications: S. Pyogenes
# Legend:
# goat IgG = test: IdeS species restrictions: goat IgG; type: biochemical
# H-kininogen = biological target: T1, H-kininogen; test: IdeS cleavage of other human proteins: H-kininogen; type: biochemical
molecule,measurement,setting,value
B1,cleavage of goat IgG,goat IgG,cleave
same,"cleavage products, H-kininogen",H-kininogen,No cleavage products could be detected
